Test results taken from US10782287B2, “Enzyme coupled assay for quantification of protein and peptide binding by SAMDI mass spectrometry” (NORTHWESTERN UNIVERSITY, priority 2015, dated 2020).
Ends that are not written are not given here.

Biological target: T1, Cbx1 fusion protein (Cbx1 chromodomain-KDAC8) (Homo sapiens, UniProt P83916)
T1 construct: constructing E. coli-based vectors containing chromodomains and KDAC8 separated by a short linker; made in house; host or cells: E. coli
Experiment: Enzyme-coupled SAMDI mass spectrometry assay: deacetylation of an immobilized KDAC8 substrate reports chromodomain binding to a co-immobilized ligand
Type: biochemical
Conditions: monolayer presenting substrate GMK^AcFGC and the ligand; when the chromodomain binds its ligand on the monolayer
Description: In this example, two peptides—a methylated peptide that binds the chromodomain and an acetylated peptide that is a substrate for the deacetylase—are immobilized to a monolayer presenting maleimide groups against a background of tri(ethylene glycol) groups. The density of the maleimide group is controlled precisely (Houseman et al., Langmuir 19: 1522-1531 (2003)) and the relative densities of the two peptides are controlled either by immobilizing them as a mixture at defined concentrations or by immobilizing the first for a time that gives incomplete immobilization followed by addition of the second peptide. Fusion proteins are prepared by first constructing E. coli-based vectors containing chromodomains and KDAC8 separated by a short linker. The vector is designed to contain a restriction site allowing for the insertion of any chromodomain of interest containing the complementary restriction sites. In this way, the same plasmid containing KDAC8 may be used to rapidly create several chromodomain fusions. Monolayers are treated with the chromodomain-KDAC8 fusion protein for different times, the reactions are stopped by rinsing and the spots are analyzed by SAMDI mass spectrometry to identify an initial velocity for the reaction, υo, which is the measurable parameter that is used to assess the protein-ligand interaction. […]

T1 sequence (P83916 21-79 limits assumed): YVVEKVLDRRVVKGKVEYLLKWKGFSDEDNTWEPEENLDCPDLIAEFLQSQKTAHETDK

rate acceleration for the deacetylation reaction: approximately 20 fold
Substance: QTARK^MeSTGC: methylated H3K9-based peptide ligand for the Cbx1 chromodomain, immobilized on the monolayer via cysteine (QTARK(Me)STGC; also: immobilized on the monolayer via cysteine)
